According to the supplement of paper PMC7877785:
± gives the uncertainty stated by the source.

Assay: self-splicing fitness, log relative to wild type (ln ratio); higher = more splicing; Tetrahymena group I intron in knt gene, E. coli kanamycin selection, DiMSum; sequences stand for … in CUCUCU…GGAGGGAAAAGUUAUCAGGCAUGCACCUGGUAGCUAGUCUUUAAACCAAUAGAUUGCAUCGGUUUAAAAGGCAAGACCGUCAAAUUGCGGGAAAGGGGUCAACAGCCGUUCAGUACCAAGUCUCAGGGGAAACUUUGAGAUGGCCUUGCAAAGGGUAUGGUAAUAAGCUGACGGACAUGGUCCUAACCACGCAGCCAAGUCCUAAGUCAACAGAUCUUCUGUUGAUAUGGAUGCAGUUCACAGACUAAAUGUCGGUCGGGGAAGAUGUAUUCUUCUCAUAAGAUAUAGUCGGACCUCUCCUUAAUGGGAGCUAGCGGAUGAAGUGAUGCAACACUGGAGCCGCUGGGAACUAAUUUGUAUGCGAAAGUAUAUUGAUUAGUUUUGGAGUACUCGUGGUCG
Summary of the method: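 The eight P1ex-region nucleotides of an intron in the knt kanamycin-resistance gene on pET-22b(+) were all randomised and the library put into E. coli BL21(DE3). Six replicate transformations were grown overnight at 37°C or 30°C on LB agar with or without 25 μg/mL kanamycin, together with 100 μg/mL carbenicillin, 50 μM IPTG and 0.2% rhamnose. Colonies were pooled and amplicon-sequenced on an Illumina HiSeq 2500. Fitness from DiMSum is the error-weighted combination of wild-type-normalised replicate fold changes, kanamycin over none.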

Sequence	self-splicing fitness (ln) (30 °C)	self-splicing fitness (ln) (37 °C)
AGGAAGCAAUAUUACGGUGC	-3.36 ± 0.21	-2.51 ± 0.2
UUCGAGCAAUAUUACGGCCG		-1.41 ± 0.35
CCAAAGCAAUAUUACGCCUC	-3.33 ± 0.29	-2.52 ± 0.32
AUUGAGCAAUAUUACGCUUA	-2.75 ± 0.16	-1.02 ± 0.13
AUGCAGCAAUAUUACGCUGU	-3.46 ± 0.21	-2.63 ± 0.45
UGUUAGCAAUAUUACGUCAU	-2.42 ± 0.3	-1.35 ± 0.24
GGCUAGCAAUAUUACGUAGA	-0.208 ± 0.079	-0.236 ± 0.1
UAUCAGCAAUAUUACGCAGG	-1.01 ± 0.055	0.028 ± 0.07
UCAGAGCAAUAUUACGGUAC	-2.06 ± 0.3	
CAGCAGCAAUAUUACGUCCU	-2.31 ± 0.17	-0.614 ± 0.14
UGGAAGCAAUAUUACGAUCC	-2.44 ± 0.47	-2.1 ± 0.41
UCUUAGCAAUAUUACGAUCG	-1.44 ± 0.19	-0.631 ± 0.19
AGGAAGCAAUAUUACGCACC	-1.52 ± 0.16	0.0459 ± 0.16
CAGUAGCAAUAUUACGCAGC	-3.05 ± 0.34	-1.3 ± 0.33
ACUUAGCAAUAUUACGCCGU	-2.28 ± 0.24	-1.11 ± 0.23
CAGUAGCAAUAUUACGCCGA	-3.13 ± 0.35	-0.00684 ± 0.18
GUGAAGCAAUAUUACGUCGU	-0.585 ± 0.11	-0.777 ± 0.12
UCAAAGCAAUAUUACGGUAG	-1.54 ± 0.088	-1.19 ± 0.11
GCACAGCAAUAUUACGGGCG	-1.4 ± 0.071	0.0832 ± 0.081
GCGAAGCAAUAUUACGGAAC	-2.72 ± 0.21	-2.28 ± 0.47
GCAAAGCAAUAUUACGCGGA	-3.48 ± 0.27	-1.94 ± 0.17
GGUAAGCAAUAUUACGACGG	-3.74 ± 0.33	-2.84 ± 0.34
CCCUAGCAAUAUUACGCUAG	-4.18 ± 0.34	-2.47 ± 0.28
AGUAAGCAAUAUUACGAUAA	-2.23 ± 0.32	-1.4 ± 0.19
GAACAGCAAUAUUACGAAUU	-1.15 ± 0.088	-0.293 ± 0.1

Sequence	self-splicing fitness (ln) (30 °C)	self-splicing fitness (ln) (37 °C)
UUUAAGCAAUAUUACGACAC	-2.23 ± 0.44	
GGUCAGCAAUAUUACGUCAA	-0.511 ± 0.071	0.0808 ± 0.082
AGAUAGCAAUAUUACGCGCG	0.343 ± 0.18	-0.618 ± 0.2
GCGAAGCAAUAUUACGAUCG	-2.49 ± 0.31	-0.964 ± 0.28
UGAUAGCAAUAUUACGUGCG	-0.579 ± 0.1	-0.921 ± 0.087
AAGAAGCAAUAUUACGCAGC	-3.17 ± 0.38	-2.12 ± 0.22
CCGAAGCAAUAUUACGCCUC	-1.84 ± 0.28	
AUUGAGCAAUAUUACGGAAC	-3.09 ± 0.23	
GUAAAGCAAUAUUACGGUUU	-0.83 ± 0.055	0.0852 ± 0.077
GCUGAGCAAUAUUACGCGGA	-4.07 ± 0.35	-2.82 ± 0.23
UGCCAGCAAUAUUACGGGAU	-3.16 ± 0.13	-2.44 ± 0.18
UGACAGCAAUAUUACGGCCU	-0.801 ± 0.068	0.131 ± 0.078
CAGCAGCAAUAUUACGGGUG	-1.35 ± 0.082	-0.904 ± 0.085
CGACAGCAAUAUUACGUAGA	-3.57 ± 0.13	-2.12 ± 0.15
GACGAGCAAUAUUACGUCUU	-2.63 ± 0.21	-1.01 ± 0.17
AAUAAGCAAUAUUACGCUCA	-0.304 ± 0.091	-0.155 ± 0.12
CAUGAGCAAUAUUACGAAAU	-2.72 ± 0.3	-3.25 ± 0.43
AUAGAGCAAUAUUACGGCCA	-1.25 ± 0.15	-1.02 ± 0.24
ACGGAGCAAUAUUACGUUUG	-2.3 ± 0.12	-2.31 ± 0.19
UUCAAGCAAUAUUACGUGUA	-1.11 ± 0.056	-0.453 ± 0.059
CUCAAGCAAUAUUACGAGCA		-2.49 ± 0.33
GAGGAGCAAUAUUACGAUAU	-1.34 ± 0.26	-2.53 ± 0.45
AAGUAGCAAUAUUACGGGAC	-2.43 ± 0.11	-2.83 ± 0.21
CGAGAGCAAUAUUACGUUAA	-2.26 ± 0.22	
ACCGAGCAAUAUUACGAUAA	-3.72 ± 0.23	-2.01 ± 0.2

Sequence	self-splicing fitness (ln) (30 °C)	self-splicing fitness (ln) (37 °C)
AAAAAGCAAUAUUACGGUUC	-2.7 ± 0.18	-1.81 ± 0.21
CCCUAGCAAUAUUACGGAUG	-3.17 ± 0.15	-1.53 ± 0.11
UUUCAGCAAUAUUACGCUGA	-3.32 ± 0.47	-2.24 ± 0.42
CACCAGCAAUAUUACGUGCG	-0.627 ± 0.04	-0.299 ± 0.056
UCCGAGCAAUAUUACGCUGU	-3.1 ± 0.19	-0.655 ± 0.16
GUAUAGCAAUAUUACGUUGG	-3.33 ± 0.31	-1.12 ± 0.26
UCCCAGCAAUAUUACGGACU	-2.81 ± 0.11	-1.21 ± 0.096
UCUGAGCAAUAUUACGAAAG	-2.21 ± 0.27	-1.71 ± 0.27
AUGGAGCAAUAUUACGGAUG		-2.29 ± 0.37
GUGGAGCAAUAUUACGGACC	-1.56 ± 0.38	
GCGAAGCAAUAUUACGGUGA	-2.09 ± 0.11	-1.07 ± 0.12
GUACAGCAAUAUUACGGCCG	-1.89 ± 0.1	-0.534 ± 0.13
GACCAGCAAUAUUACGGGUC	-4.01 ± 0.21	-3.33 ± 0.22
GAUUAGCAAUAUUACGCACG	-1.36 ± 0.12	-1.14 ± 0.14
CCGAAGCAAUAUUACGUGGA	-3.71 ± 0.29	-2.47 ± 0.17
GCACAGCAAUAUUACGUACC	-1.47 ± 0.096	-0.717 ± 0.13
CCAAAGCAAUAUUACGCUAC	-2.17 ± 0.23	-1.58 ± 0.27
ACAAAGCAAUAUUACGGAUG	-1.59 ± 0.087	-1.08 ± 0.1
CCCUAGCAAUAUUACGGGAG	-3.67 ± 0.18	-1.79 ± 0.14
CCUGAGCAAUAUUACGCCGU	-3.18 ± 0.45	-1.61 ± 0.39
CACAAGCAAUAUUACGCGGC	-3.25 ± 0.19	-2.98 ± 0.23
AACCAGCAAUAUUACGAGGC	-3.43 ± 0.23	-2.2 ± 0.18
CCCUAGCAAUAUUACGCCAA	-3.03 ± 0.25	-2.74 ± 0.41
UCACAGCAAUAUUACGCUCC	-2.21 ± 0.27	-1.51 ± 0.37
UGCCAGCAAUAUUACGCGUG	-1.71 ± 0.086	-0.381 ± 0.089

Sequence	self-splicing fitness (ln) (30 °C)	self-splicing fitness (ln) (37 °C)
CAGUAGCAAUAUUACGCUUU	-4.27 ± 0.24	-1.93 ± 0.17
CUCGAGCAAUAUUACGUACU	-2.68 ± 0.2	-3.11 ± 0.33
UCACAGCAAUAUUACGUUCA	-0.499 ± 0.074	-0.438 ± 0.078
CAGUAGCAAUAUUACGAAGC		-3.05 ± 0.32
ACGGAGCAAUAUUACGUGGU	-3.91 ± 0.4	-1.08 ± 0.2
AACCAGCAAUAUUACGAUUU	0.157 ± 0.044	-0.0356 ± 0.058
UCUCAGCAAUAUUACGAUAA	-2.15 ± 0.21	-1.33 ± 0.21
ACGCAGCAAUAUUACGCGGC	-3.37 ± 0.17	-3.06 ± 0.25
ACCCAGCAAUAUUACGGCAC	-0.669 ± 0.079	0.0747 ± 0.12
CCCAAGCAAUAUUACGCCAU	-3.28 ± 0.22	-2.5 ± 0.23
AAGAAGCAAUAUUACGAUGG	-1.93 ± 0.14	-2 ± 0.22
CACCAGCAAUAUUACGCCAG	-0.583 ± 0.075	0.205 ± 0.097
GCACAGCAAUAUUACGAUAA	-1.31 ± 0.07	-0.957 ± 0.096
CACAAGCAAUAUUACGGCCC	-2.49 ± 0.22	-1.82 ± 0.31
CAUGAGCAAUAUUACGGAAG	-1.47 ± 0.077	-0.61 ± 0.1
UUCAAGCAAUAUUACGCUGA	-2.5 ± 0.16	-2.33 ± 0.21
GCCGAGCAAUAUUACGAGAA	-2.99 ± 0.19	-0.755 ± 0.12
AUUUAGCAAUAUUACGCGUC	-3.21 ± 0.3	-2.96 ± 0.47
GUAUAGCAAUAUUACGCCAG	-3.17 ± 0.33	-1.26 ± 0.29
CGUCAGCAAUAUUACGCUGC	-2.95 ± 0.26	-2.22 ± 0.35
CCUGAGCAAUAUUACGUAUA	-3.53 ± 0.23	-2.51 ± 0.24
AGAGAGCAAUAUUACGACAU	-2.476 ± 0.019	-1.94 ± 0.037
CUAGAGCAAUAUUACGUUUA	-4.4 ± 0.24	-0.83 ± 0.17
